Results published in US20250212928A1.

Biological target: bovine trypsin (bovine) (UniProt P00760)
Assay: cell-based or functional assay

UniProt P00760, sequence (P00760 24-246): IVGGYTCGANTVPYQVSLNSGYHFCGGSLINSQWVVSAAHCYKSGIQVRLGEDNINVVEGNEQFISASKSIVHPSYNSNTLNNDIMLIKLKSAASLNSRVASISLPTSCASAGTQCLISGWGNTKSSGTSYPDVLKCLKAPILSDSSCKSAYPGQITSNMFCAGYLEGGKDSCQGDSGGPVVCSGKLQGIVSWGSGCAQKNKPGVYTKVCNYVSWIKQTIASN

Trypsin inhibition activity: 13700 TIU/g
Substance: native chicken ovomucoid (nOVD), from chicken egg white (from UniProt P01005 25-210)
